Results published in PMC11317151, “DNA binding and bridging by human CtIP in the healthy and diseased states” (Nucleic Acids Research, 2023).
Where a chain is given by its changes, count along the chain named. Names and notes keep the numbering of the source.

B1: CtIP-L27E (natural protein, human, UniProt Q99708 1-897, looked up)
chain: MNISGSSCGSPNSADTSSDFKDLWTKEKECHDREVQGLQVKVTKLKQERILDAQRLEEFFTKNQQLREQQKVLHETIKVLEDRLRAGLCDRCAVTEEHMRKKQQEFENIRQQNLKLITELMNERNTLQEENKKLSEQLQQKIENDQQHQAAELECEEDVIPDSPITAFSFSGVNRLRRKENPHVRYIEQTHTKLEHSVCANEMRKVSKSSTHPQHNPNENEILVADTYDQSQSPMAKAHGTSSYTPDKSSFNLATVVAETLGLGVQEESETQGPMSPLGDELYHCLEGNHKKQPFEESTRNTEDSLRFSDSTSKTPPQEELPTRVSSPVFGATSSIKSGLDLNTSLSPSLLQPGKKKHLKTLPFSNTCISRLEKTRSKSEDSALFTHHSLGSEVNKIIIQSSNKQILINKNISESLGEQNRTEYGKDSNTDKHLEPLKSLGGRTSKRKKTEEESEHEVSCPQASFDKENAFPFPMDNQFSMNGDCVMDKPLDLSDRFSAIQRQEKSQGSETSKNKFRQVTLYEALKTIPKGFSSSRKASDGNCTLPKDSPGEPCSQECIILQPLNKCSPDNKPSLQIKEENAVFKIPLRPRESLETENVLDDIKSAGSHEPIKIQTRSDHGGCELASVLQLNPCRTGKIKSLQNNQDVSFENIQWSIDPGADLSQYKMDVTVIDTKDGSQSKLGGETVDMDCTLVSETVLLKMKKQEQKGEKSSNEERKMNDSLEDMFDRTTHEEYESCLADSFSQAADEEEELSTATKKLHTHGDKQDKVKQKAFVEPYFKGDERETSLQNFPHIEVVRKKEERRKLLGHTCKECEIYYADMPAEEREKKLASCSRHRFRYIPPNTPENFWEVGFPSTQTCMERGYIKEDLDPCPRPKRRQPYNAIFSPKGKEQKT
notes: CtIP, human, with the point mutation L27E in the N-terminal tetramerisation interface; Probably made like the wild type (insect cells, StrepII tag)
B2: CtIP-R100W (natural protein, human, UniProt Q99708 1-897, looked up)
chain: B1 chain with E27L, R100W
notes: CtIP, human, with the point mutation R100W that is associated with Seckel-like disease and early onset breast cancer; Expected tetramer mass is printed as 404 kDa, as for the wild type; also called R100W CtIP; source: insect cells (baculovirus, pACEBac1), purified
B3: Wild type CtIP (natural protein, human, UniProt Q99708 1-897, looked up)
chain: B1 chain with E27L
notes: CtIP, human DNA repair factor, wild type, full length; the tag was probably cleaved from the wild type too; also called WT-CtIP; CtIP-WT
B4: CtIP ΔN500 (domain or fragment, human, UniProt Q99708 500-897, looked up)
chain: IQRQEKSQGSETSKNKFRQVTLYEALKTIPKGFSSSRKASDGNCTLPKDSPGEPCSQECIILQPLNKCSPDNKPSLQIKEENAVFKIPLRPRESLETENVLDDIKSAGSHEPIKIQTRSDHGGCELASVLQLNPCRTGKIKSLQNNQDVSFENIQWSIDPGADLSQYKMDVTVIDTKDGSQSKLGGETVDMDCTLVSETVLLKMKKQEQKGEKSSNEERKMNDSLEDMFDRTTHEEYESCLADSFSQAADEEEELSTATKKLHTHGDKQDKVKQKAFVEPYFKGDERETSLQNFPHIEVVRKKEERRKLLGHTCKECEIYYADMPAEEREKKLASCSRHRFRYIPPNTPENFWEVGFPSTQTCMERGYIKEDLDPCPRPKRRQPYNAIFSPKGKEQKT
notes: CtIP, human, the first 499 amino acids removed (begins at residue 500); a and b are two SEC fractions (dimer and monomer peaks) of the same preparation; also called ΔN500a; ΔN500b; source: High-Five insect cells (baculovirus), purified (StrepTactin, MonoQ, Superose 6 SEC); not shown: StrepII, C-terminal, kept
B5: CtIP ΔC608 (domain or fragment, human, UniProt Q99708 1-608, looked up)
chain: MNISGSSCGSPNSADTSSDFKDLWTKLKECHDREVQGLQVKVTKLKQERILDAQRLEEFFTKNQQLREQQKVLHETIKVLEDRLRAGLCDRCAVTEEHMRKKQQEFENIRQQNLKLITELMNERNTLQEENKKLSEQLQQKIENDQQHQAAELECEEDVIPDSPITAFSFSGVNRLRRKENPHVRYIEQTHTKLEHSVCANEMRKVSKSSTHPQHNPNENEILVADTYDQSQSPMAKAHGTSSYTPDKSSFNLATVVAETLGLGVQEESETQGPMSPLGDELYHCLEGNHKKQPFEESTRNTEDSLRFSDSTSKTPPQEELPTRVSSPVFGATSSIKSGLDLNTSLSPSLLQPGKKKHLKTLPFSNTCISRLEKTRSKSEDSALFTHHSLGSEVNKIIIQSSNKQILINKNISESLGEQNRTEYGKDSNTDKHLEPLKSLGGRTSKRKKTEEESEHEVSCPQASFDKENAFPFPMDNQFSMNGDCVMDKPLDLSDRFSAIQRQEKSQGSETSKNKFRQVTLYEALKTIPKGFSSSRKASDGNCTLPKDSPGEPCSQECIILQPLNKCSPDNKPSLQIKEENAVFKIPLRPRESLETENVLDDIKSAGS
notes: designed to be equivalent to the deletion of Jawad syndrome; also called ΔC608 CtIP; Jawad variant
B6: CtIP ΔN541 (domain or fragment, human, UniProt Q99708 541-897, looked up)
chain: GNCTLPKDSPGEPCSQECIILQPLNKCSPDNKPSLQIKEENAVFKIPLRPRESLETENVLDDIKSAGSHEPIKIQTRSDHGGCELASVLQLNPCRTGKIKSLQNNQDVSFENIQWSIDPGADLSQYKMDVTVIDTKDGSQSKLGGETVDMDCTLVSETVLLKMKKQEQKGEKSSNEERKMNDSLEDMFDRTTHEEYESCLADSFSQAADEEEELSTATKKLHTHGDKQDKVKQKAFVEPYFKGDERETSLQNFPHIEVVRKKEERRKLLGHTCKECEIYYADMPAEEREKKLASCSRHRFRYIPPNTPENFWEVGFPSTQTCMERGYIKEDLDPCPRPKRRQPYNAIFSPKGKEQKT
notes: CtIP, human, the first 540 amino acids removed (begins at residue 541); a and b are two SEC fractions (dimer and monomer peaks) of the same preparation; No tag cleavage is described in its purification; also called ΔN541a; ΔN541b; source: High-Five insect cells (baculovirus), purified (StrepTactin, MonoQ, Superose 6 SEC)
B7: CtIP ΔC782 (domain or fragment, human, UniProt Q99708 1-782, looked up)
chain: MNISGSSCGSPNSADTSSDFKDLWTKLKECHDREVQGLQVKVTKLKQERILDAQRLEEFFTKNQQLREQQKVLHETIKVLEDRLRAGLCDRCAVTEEHMRKKQQEFENIRQQNLKLITELMNERNTLQEENKKLSEQLQQKIENDQQHQAAELECEEDVIPDSPITAFSFSGVNRLRRKENPHVRYIEQTHTKLEHSVCANEMRKVSKSSTHPQHNPNENEILVADTYDQSQSPMAKAHGTSSYTPDKSSFNLATVVAETLGLGVQEESETQGPMSPLGDELYHCLEGNHKKQPFEESTRNTEDSLRFSDSTSKTPPQEELPTRVSSPVFGATSSIKSGLDLNTSLSPSLLQPGKKKHLKTLPFSNTCISRLEKTRSKSEDSALFTHHSLGSEVNKIIIQSSNKQILINKNISESLGEQNRTEYGKDSNTDKHLEPLKSLGGRTSKRKKTEEESEHEVSCPQASFDKENAFPFPMDNQFSMNGDCVMDKPLDLSDRFSAIQRQEKSQGSETSKNKFRQVTLYEALKTIPKGFSSSRKASDGNCTLPKDSPGEPCSQECIILQPLNKCSPDNKPSLQIKEENAVFKIPLRPRESLETENVLDDIKSAGSHEPIKIQTRSDHGGCELASVLQLNPCRTGKIKSLQNNQDVSFENIQWSIDPGADLSQYKMDVTVIDTKDGSQSKLGGETVDMDCTLVSETVLLKMKKQEQKGEKSSNEERKMNDSLEDMFDRTTHEEYESCLADSFSQAADEEEELSTATKKLHTHGDKQDKVKQKAFVEPYFK
notes: designed to be equivalent to the deletion of Seckel-2 syndrome; also called ΔC782 CtIP; Seckel-2 variant

Target: the molecule itself
Test: native gel or EMSA; native blue PAGE of purified CtIP proteins, compared with the wild type (tetramer) and CtIP-L27E (dimer) reference proteins

B1: binds.

Target: the molecule itself
Test: SEC-MALS; Superose 6 10/300; samples of 0.5–1 mg/ml injected; 20 mM Tris–Cl pH 8.0, 200 mM NaCl, 0.5 mM TCEP

B2 and B3 are the same in “stoichiometry N” value: 4 for the first, 4 for the second.

Compared with B4, B5 is higher in “stoichiometry N” value: 2 for the first, 4 for the second.

First: B6
Second: B7
The “stoichiometry N” value of the first is lower: 2 for the first, 4 for the second.
